Biological target: the molecule itself
Assay: AUC; sedimentation velocity, 10-80 uM protein, 50 mM Tris-HCl pH 8.0, 100 mM NaCl, 1 mM Na2-EDTA, 20 C, 40,000 rpm, 280 nm; self-association (dimer)

B1: C.Csp231I controller protein (natural protein, Citrobacter sp. RFL231, UniProt Q32WH4 1-98, looked up)
chain: MLIRRLKDARLRAGISQEKLGVLAGIDEASASARMNQYEKGKHAPDFEMANRLAKVLKIPVSYLYTPEDDLAQIILTWNELNEQERKRINFYIRKKAK
notes: C.Csp231I controller protein of the Csp231I restriction-modification system, Citrobacter sp; RFL231; native untagged protein, 98 amino acids (Mr 11,360), expressed from the csp231IC gene; Homodimer in solution and in both crystal forms; also called C-protein; source: E. coli BL21(DE3) Gold, pET-11a, purified (HiTrap heparin, HiTrap SP, Sephacryl S-100 HR)
  stoichiometry N: 2

— publication PMC3115060, “Structural Analysis of a Novel Class of R–M Controller Proteins: C.Csp231I from Citrobacter sp. RFL231” (Journal of Molecular Biology, 2011)
